# Reference: patent publication US6777176 (ARPIDA, dated 2004)
# B1: peptide 15 (peptide)
# peptide: SGRKSTRVHHWLLVL
# B2: peptide 12 (peptide)
# peptide: WHKR
# B3: peptide 2 (peptide)
# peptide: KKFALRK
# B4: peptide 9 (peptide)
# peptide: KKFHIRKR
# B5: peptide 8 (peptide)
# peptide: KKWHKRKK
# B6: peptide 14 (peptide)
# peptide: GLRFGKTRVHYLVLG
# B7: peptide 1 (peptide)
# peptide: KKFHLRK
# B8: peptide 13 (peptide)
# peptide: WHKR
# B9: peptide 22 (peptide)
# peptide: DGARLHYLF
# B10: peptide 27 (peptide)
# peptide: RHITSL
# B11: peptide 25 (peptide)
# peptide: RHRTLF
# B12: peptide 26 (peptide)
# peptide: RHYLLF
# B13: peptide 28 (peptide)
# peptide: RHITLF
# B14: peptide 17 (peptide)
# peptide: SSLRGHRWVY
# B15: peptide 31 (peptide)
# peptide: MRLLKTLCFGLCG
# Molecular target: T1, enzyme I (phosphoenolpyruvate-protein-phosphatase, EC 2.7.3.9) of the bacterial phosphotransferase system (E. coli, UniProt P08839 1-575)
# Test: cell-based or functional assay
Binder,inhibition IC50 (µM) of in vitro phosphotransferase activity,uncoupling P1/peptide (x IC50/h)
B1,1380 µM,
B2,410 µM,
B3,60 µM,6.6 x IC50/h
B4,1200 µM,132 x IC50/h
B5,375 µM,64.2 x IC50/h
B6,650 µM,
B7,25 µM,3.2 x IC50/h
B8,500 µM,

# Molecular target: T1, enzyme I …
# Test: cell-based or functional assay
# Remark: another data set of the same source
Binder,inhibition IC50,uncoupling P1/peptide/h
B9,820 µM,0.05 P1/peptide/h
B10,440 µM,0.215 P1/peptide/h
B11,530 µM,0.23 P1/peptide/h
B12,300 µM,0.29 P1/peptide/h
B13,160 µM,0.31 P1/peptide/h
B14,,0.07 P1/peptide/h
B15,4900 µM,
